Values quoted from earlier work, collected in article PMC9871372.

Biological target: NisA precursor peptide (Lactococcus lactis) (UniProt P13068)
Chain of UniProt P13068 (P13068 24-57): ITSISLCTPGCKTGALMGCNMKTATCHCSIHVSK

Kd: 1050 nM
Substance: NisB (from UniProt P20103)
